The experiment deals with calmodulin (full-length wild-type CaM) (human, UniProt P0DP23 1-149). The experiment is described as follows: circular dichroism. A general note: Circular dichroism is the unequal absorption of left and right circularly polarised light.

The values that follow come from paper PMC4900146 (Biochemistry, 2016).

B1: pCaN, peptide encompassing the CaM-binding domain of calcineurin A (residues 391-414) (peptide)
peptide: not shown
Take B1: the binding result was “binds”.
